Measurements reported in PMC11893383 (Frontiers in Immunology, 2025).

B1: AB5-20 (antibody, V domains shown)
VH: QVQLVESGGGVVQPGRSLRLSCTASGFTFRHYGLHWVRQAPGKGLEWVAVILYDGSDEDYRDSVKGRFTISRDNSKNTLYLQMNSLRPEDTAVYYCAKQSGPYCSGGNCYSGHFDYWGQGTPVSVSS
VL: DIQMTQSPSSLSASVGDRVTITCQASQDISKSLSWYEQKPGKAPRLLIFEASNLETGVPSRFSGSGSGTSFSFTISSLQPEDFATYYCQQYDNVPLTFGGGTKVERK
B2: AB5-16 (antibody, V domains shown)
VH: QALMVQSEAAVKKPGASVKVSCKATGDAFSNHYLHWLRQAPGQGLEWLGIINPGAGSTTYAQKFQGRLTVTTDTSTNTVYMELSSLRSDDTAVYYCARDGAFIPSSYYYGMDVWGQGTTVTVSS
VL: EIVLTQSPGTLALSPGERATLSCRASQSVSSSYLAWYQQKPGQAPRLLIYGASSRATGVPDRFSGSGSGTDFTLTVSSLEPEDFAVYYCQQREAFGQGTKVEVK
B3: AB5-21 (antibody, V domains shown)
VH: EVQLVESGGGLVQPGGSLRLSCAASGLIVSSNYMHWVRQAPGEGLEWVSVIYSGGSTFYADSVKGRFTISRDNSKNTLYLQMNSLRAEDTAVYYCARGLGDPMDVWGQGTTVTVSS
VL: DIQLTQSPSFLSASVGDRVTITCRASQGISSDLAWYQQKPGKAPKLLINAASTLQNGVPSRFSGSGSGTEFTLSISSLQPEDFATYYCQQLNSYPPKLTFGGGTKVEIK
B4: AB5-18 (antibody, V domains shown)
VH: EVQLVESGGGLVQPGGSLRLSCAASGITVTSNYMTWVRQAPGKGLEWVSLIYAGGSTFYADSVKGRFTVSRDKSKNTLYLQMNSLRGEDTAVYYCARDLQEAGGMDVWGQGTTVTVSS
VL: ENVLTQSPGTLSLSPGERATLSCRASQFVSSTFLAWYQQKPGQAPRLLMYGASNRATDIPDRFSGGGSGTDFTLTISRLEPEDFAVYYCQQFGSSPFTFGQGTKLEIK
B5: AB6-17 (antibody, V domains shown)
VH: QLQLQESGPGLVESSETLSLTCTVSSGSISRSTYYWGWIRQPPGKGMEWIGSISSGGSTYYNPSLNSRVTISIDTSKNQFSLKLRSVTAADTAVYYCARALQWPSPRIDYWAQGTLVTVSS
VL: DIQMTQSPSSLSASVGDRVTITCRASQSISSYLNWYQHKPGKAPKLLIYAASSLESGVPSRFTGSGSGTDFTLTIDSLQPEDFATYYCQQSYSTPLFTFGPGTTVDIK

What was measured:
[1] = target: T1, SARS-CoV-2 wild-type (WT) spike trimer (SARS-CoV-2, wild type (Wuhan-Hu-1 …, UniProt P0DTC2)); experiment: ELISA; settings: both partners purified
T1 construct: also called spike protein

[2] = target: T2, SARS-CoV-2 Omicron B.1.1.529 receptor-binding domain (RBD), His-tagged (SARS-CoV-2 Omicron B.1.1.529 (BA.1), strain); experiment: BLI; settings: both partners purified
T2 construct: also called B.1.1.529 RBD; RBD Omicron B.1.1.529

| Binder | binding result [1] | Kd [2] |
| --- | --- | --- |
| B1 | binds |  |
| B2 | binds |  |
| B3 |  | 30 nM |
| B4 |  | 3.4 nM |
| B5 | binds |  |
